Measurements published in article PMC8066426 (iScience, 2021).

Columns and labels:
[1] = biological target: ATP-binding site mutant of the TpCorC cross-linking construct (T106C/C282A/Y255A/T336I) (Thermus parvatiensis); test: cross-linking
[2] = biological target: TpCorC inter-subunit cross-linking mutant (T106C/C282A) (Thermus parvatiensis); test: cross-linking
CorC (TpCorC) [3] = biological target: T1, CorC (TpCorC) (Thermus parvatiensis, UniProt A0A109QFA5); test: FRET from endogenous Trp to bound mant fluorophore, saturation binding
T1 sequence (A0A109QFA5 207-348): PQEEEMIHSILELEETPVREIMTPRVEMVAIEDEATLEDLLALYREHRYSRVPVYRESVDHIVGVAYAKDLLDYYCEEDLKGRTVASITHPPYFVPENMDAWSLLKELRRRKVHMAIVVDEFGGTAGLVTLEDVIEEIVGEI

CorC (TpCorC) [4] = biological target: T1, CorC (TpCorC); test: competitive displacement of mant-ATP; format: binding

## ATP-binding site mutant of the TpCorC cross-linking construct (T106C/C282A/Y255A/T336I) (natural protein)
[1]
  stoichiometry N: 2

## TpCorC inter-subunit cross-linking mutant (T106C/C282A) (natural protein)
[2]
  stoichiometry N: 2

## CNc1ccccc1C(=O)O[C@H]1[C@@H](O)[C@H](n2cnc3c(N)ncnc32)O[C@@H]1CO[P@@](=O)(O)O[P@](=O)(O)OP(=O)(O)O [mant-ATP, 2′(3′)-O-(N-methylanthraniloyl)adenosine 5′-triphosphate]
CorC (TpCorC) [3]
  Kd: 1360 ± 100 nM

## Nc1ncnc2c1ncn2[C@@H]1O[C@H](COP(=O)(O)OP(=O)(O)OP(=O)(O)O)[C@@H](O)[C@H]1O [ATP]
CorC (TpCorC) [4]
  IC50: 570 ± 80 nM
